# Results reported in patent publication US20110300138A1 (published 2011).
# B1: 5C9 IgG (antibody, from another filing, V domains shown)
# VH: EVQLVESGGGLIQPGGSLRLSCAASGFTVSSNYMSWVRQAPGKGLEWVSVTYSGGSTSYADSVKGRFTISRDNSKNTLYLQMNSLRAEDTAVYYCARGGRYCSSISCYARSGCDYWGQGTLVTVSS
# VL: AIQMTQSPSSLSASVGDRVTITCRASQSISNYLNWYQQKPGKAPKLLIYAASSLQSGVPSRFSGSGSGTDFTLTISSLQPEDFATYYCQQSYSSPSTTFGQGTKLEIK
# Assays:
# [1] = target: TSH receptor (full length human TSHR) (human) (UniProt P16473); test: competition ELISA: inhibition of M22 Fab-peroxidase (competitor) binding to TSHR coated wells; negative control at 0.01 µg/mL diluted in assay buffer
# [2] = target: human TSH receptor (full length) coated on ELISA plate wells (human) (UniProt P16473); test: TSH-biotin binding inhibition ELISA, TSHR coated wells; 1 µg/mL in assay buffer; negative control MAb
# [3] = target: human thyroid stimulating hormone receptor (TSHR), full length (human) (UniProt P16473); test: 125I-K1-70 Fab (competitor) binding to TSHR coated tubes; negative control MAb 1 µg/mL in assay buffer
# [4] = target: TSHR (thyroid stimulating hormone receptor), full length human (human) (UniProt P16473); test: negative control; competitor ^125I-K1-70 IgG, TSHR coated tubes; 100 µg/mL in assay buffer
# [5] = target: TSH receptor (TSHR), full length human, coated on tubes (human) (UniProt P16473); test: inhibition of 125I-K1-18 IgG binding to TSHR coated tubes; competitor 125I-K1-18 IgG; sample at 100 µg/mL in assay buffer
# [6] = target: TSH receptor (full length human TSHR) (human) (UniProt P16473); test: competition ELISA: inhibition of M22 Fab-peroxidase (competitor) binding to TSHR coated wells; test sample at 10 µg/mL diluted in assay buffer
# [7] = target: TSH receptor (TSHR), full length human, coated on tubes (human) (UniProt P16473); test: inhibition of 125I-K1-18 IgG binding to TSHR coated tubes; competitor 125I-K1-18 IgG; sample at 1 µg/mL in HBD serum
# [8] = target: TSH receptor (TSHR), full length human, coated on tubes (human) (UniProt P16473); test: inhibition of 125I-K1-18 IgG binding to TSHR coated tubes; competitor 125I-K1-18 IgG; sample at 10 µg/mL in HBD serum
# [9] = target: TSHR (full length) coated on tubes (human) (UniProt P16473); test: inhibition of 125I-K1-18 Fab (competitor) binding to TSHR coated tubes; test sample 10 µg/mL in assay buffer
# [10] = target: full length wild type human TSHR (human) (UniProt P16473); test: TSHR260-AP bridge ELISA, wild type TSHR on wells; IgG at 0.5 µg/mL in HBD
# [11] = target: TSH receptor (TSHR), full length human, coated on tubes (human) (UniProt P16473); test: inhibition of 125I-K1-18 IgG binding to TSHR coated tubes; competitor 125I-K1-18 IgG; sample at 1 µg/mL in assay buffer
# [12] = target: TSHR (thyroid stimulating hormone receptor), full length human (human) (UniProt P16473); test: competitor ^125I-K1-70 IgG, TSHR coated tubes; 0.1 µg/mL in HBD
# [13] = target: TSH receptor (full length human TSHR) (human) (UniProt P16473); test: competition ELISA: inhibition of M22 Fab-peroxidase (competitor) binding to TSHR coated wells; test sample at 0.01 µg/mL diluted in HBD serum pool
# [14] = target: TSHR with Lys129 mutated to Ala, expressed in CHO cells (human) (UniProt P16473); test: cell-based or functional assay
# [15] = target: wild type TSHR (human TSH receptor) expressed in CHO cells (human) (UniProt P16473); test: cell-based or functional assay
# [16] = target: human thyroid stimulating hormone receptor (TSHR), full length (human) (UniProt P16473); test: 125I-K1-18 Fab competition, TSHR coated tubes; 0.01 µg/mL in assay buffer
# [17] = target: TSH receptor (TSHR), full length human, coated on tubes (human) (UniProt P16473); test: inhibition of 125I-K1-18 IgG (competitor) binding to TSHR coated tubes; test sample at 1 µg/mL in assay buffer
# [18] = target: TSH receptor (TSHR), full length human, coated on tubes (human) (UniProt P16473); test: inhibition of 125I-TSH binding to TSHR coated tubes; 100 µg/mL, diluted in HBD serum pool
# [19] = target: TSH receptor (TSHR), full length human, coated on tubes (human) (UniProt P16473); test: inhibition of 125I-TSH binding to TSHR coated tubes; 0.01 µg/mL, diluted in assay buffer
# [20] = target: TSH receptor (TSHR), full length human, coated on tubes (human) (UniProt P16473); test: inhibition of 125I-K1-18 IgG (competitor) binding to TSHR coated tubes; test sample at 100 µg/mL in HBD serum pool
# [21] = target: human TSH receptor (full length) coated on ELISA plate wells (human) (UniProt P16473); test: TSH-biotin binding inhibition ELISA, TSHR coated wells; 0.01 µg/mL in assay buffer
# [22] = target: human TSH receptor (full length) coated on ELISA plate wells (human) (UniProt P16473); test: TSH-biotin binding inhibition ELISA, TSHR coated wells; 0.1 µg/mL in assay buffer
# [23] = target: human TSH receptor (full length) coated on ELISA plate wells (human) (UniProt P16473); test: TSH-biotin binding inhibition ELISA, TSHR coated wells; 0.1 µg/mL in HBD serum pool
# [24] = target: human thyroid stimulating hormone receptor (TSHR), full length (human) (UniProt P16473); test: 125I-K1-18 Fab competition, TSHR coated tubes; 100 µg/mL in HBD
# [25] = target: human thyroid stimulating hormone receptor (TSHR), full length (human) (UniProt P16473); test: 125I-K1-18 Fab competition, TSHR coated tubes; 0.1 µg/mL in assay buffer
molecule,measurement,setting,value
5B3 IgG (antibody),Inhibition of binding (%),[1],2.2%
same,% inhibition of TSH-biotin binding,[2],-1%
same,Inhibition of binding (%),[3],-1.7%
same,Inhibition of binding (%),[4],1.3%
9D33 IgG (antibody),Inhibition of binding (%),[5],72.5%
same,Inhibition of binding (%),[6],64.2%
same,Inhibition of binding (%),[7],62.1%
same,Inhibition of binding (%),[8],68.1%
same,Inhibition of binding (%),[9],69.5%
same,Mean absorbance at 405 nm (absorbance at 405 nm),[10],0.273
same,Inhibition of binding (%),[11],63%
same,Inhibition of binding (%),[12],14.8%
same,Inhibition of binding (%),[13],6.2%
TSH (ligand),"Cyclic AMP produced, mutated TSHR, TSH 0.01 ng/mL",[14],2.69 pmol/mL
same,"Cyclic AMP produced, mutated TSHR, TSH 0.03 ng/mL",[14],5.34 pmol/mL
same,"Cyclic AMP produced, mutated TSHR, TSH 0.1 ng/mL",[14],12.7 pmol/mL
same,"Cyclic AMP produced, mutated TSHR, TSH 0.3 ng/mL",[14],29 pmol/mL
same,"Cyclic AMP produced, mutated TSHR, TSH 1 ng/mL",[14],40.8 pmol/mL
same,"Cyclic AMP produced, mutated TSHR, TSH 3 ng/mL",[14],48.5 pmol/mL
same,"Mutated/Wild type (%) of cyclic AMP produced, TSH 0.01 ng/mL",[14],134%
same,"Mutated/Wild type (%) of cyclic AMP produced, TSH 0.03 ng/mL",[14],161%
same,"Mutated/Wild type (%) of cyclic AMP produced, TSH 0.1 ng/mL",[14],131%
same,"Mutated/Wild type (%) of cyclic AMP produced, TSH 0.3 ng/mL",[14],111%
same,"Mutated/Wild type (%) of cyclic AMP produced, TSH 1 ng/mL",[14],88%
same,Mutated/wild type (%) of cyclic AMP produced; TSH 3 ng/mL,[14],101%
same,"Cyclic AMP produced, wild type TSHR, TSH 0.01 ng/mL",[15],2.01 pmol/mL
same,"Cyclic AMP produced, wild type TSHR, TSH 0.03 ng/mL",[15],3.32 pmol/mL
same,"Cyclic AMP produced, wild type TSHR, TSH 0.1 ng/mL",[15],9.69 pmol/mL
same,"Cyclic AMP produced, wild type TSHR, TSH 0.3 ng/mL",[15],26.1 pmol/mL
same,"Cyclic AMP produced, wild type TSHR, TSH 1 ng/mL",[15],46.3 pmol/mL
same,"Cyclic AMP produced, wild type TSHR, TSH 3 ng/mL",[15],48.1 pmol/mL
B1,Inhibition of binding (%),[16],3%
same,Inhibition of binding (%),[17],48%
same,Inhibition of binding (%),[18],59.2%
same,Inhibition of binding (%),[19],8.3%
same,Inhibition of binding (%),[20],57.7%
same,% inhibition of TSH-biotin binding,[21],16.1%
same,% inhibition of TSH-biotin binding,[22],34.9%
same,% inhibition of TSH-biotin binding,[23],21.6%
same,Inhibition of binding (%),[24],61.3%
same,Inhibition of binding (%),[25],27.7%
